Tests used:
PmL-AAD = system: T1, PmL-AAD; experiment: initial rates by HPLC, Michaelis-Menten fit; assay type: biochemical, Proteus mirabilis; details: 50 mM Tris-HCl pH 8.0, 30 °C; substrate 1-20 mM
T1 construct: recombinant in E. coli BL21(DE3), Tween 80 solubilised, HisTrap purified
Description: initial rates by HPLC, Michaelis-Menten fit on PmL-AAD

[1] = substrate: O=C(O)[C@@H](O)c1ccc(O)cc1; experiment: initial rates by HPLC, Michaelis-Menten fit; assay type: biochemical, Pseudomonas aeruginosa; details: 0.5 mM NADP+, 50 mM Tris-HCl pH 8.0, 30 °C, substrate 1-20 mM
Description: initial rates by HPLC, Michaelis-Menten fit on PaMDH

[2] = substrate: O=C(O)C(=O)c1ccc(O)cc1; experiment: initial rates of reductive amination, HPLC, Michaelis-Menten fit; assay type: biochemical, Corynebacterium glutamicum; details: 0.5 mM NADPH, 10 mM NH4Cl, 50 mM Tris-HCl pH 8.0, 30 °C, HPGA 1-20 mM
Description: initial rates of reductive amination, HPLC, Michaelis-Menten fit on CgDAPDH^BC621

Molecule | Km (PmL-AAD) [mM] | Km [1] [mM] | kcat [1] [s⁻¹] | kcat/Km [1] [M⁻¹ s⁻¹] | Km [2] [mM] | kcat [2] [s⁻¹] | kcat/Km [2] [M⁻¹ s⁻¹]
N[C@@H](Cc1ccc(O)cc1)C(=O)O [L-tyrosine] | 2.94 ± 1.04 |  |  |  |  |  | 
PaMDH (Pseudomonas aeruginosa) (protein, recombinant in E. coli BL21(DE3), HisTrap purified) MSQNLFNVEDYRKLAQKRLPKMVYDYLEGGAEDEYGVKHNRDVFQQWRFKPKRLVDVSRRSLQAEVLGKRQSMPLLIGPTGLNGALWPKGDLALAQAATKAGIPFVLSTASNMSIEDLARQCDGDLWFQLYVIHREIAQGMVLKALHSGYTTLVLTTDVAVNGYRERDLHNRFKMPMSYTPKVMLDGCLHPRWSLDLVRHGMPQLANFVSSQTSSLEMQAALMSRQMDASFNWEALRWLRDLWPHKLLVKGLLSAEDADHCIAEGADGVILSNHGGRQLDCAVSPMEVLAQSVAKTGKPVLIDSGFRRGSDIVKALALGAEAVLLGRATLYGLAARGETGVDEVLTLLKADIDRTLAQIGCPDITSLSPDYLQSEGVTSTAPVDHLIGKGTHA |  | 0.89 ± 0.91 | 0.123 ± 0.0122 | 179 ± 3.67 |  |  | 
CgDAPDH^BC621 (Corynebacterium glutamicum ATCC 13032; D154G/H244N/Q150L/R195M/T169I) (protein, five-fold mutant BC621 in pET28a, recombinant in E. coli BL21(DE3), HisTrap purified) MTNIRVAIVGYGNLGRSVEKLIAKQPDMDLVGIFSRRATLDTKTPVFDVADVDKHADDVDVLFLCMGSATDIPEQAPKFAQFACTVDTYDNHRDIPRHRQVMNEAATAAGNVALVSTGWDPGMFSINRVYAAAVLAEHQQHTFWGPGLSLGHSGALRRIPGVQKAVQYILPSEDALEKARRGEAGDLTGKQTHKMQCFVVADAADHERIENDIRTMPDYFVGYEVEVNFIDEATFDSEHTGMPNGGHVITTGDTGGFNHTVEYILKLDRNPDFTASSQIAFGRAAHRMKQQGQSGAFTVLEVAPYLLSPENLDDLIARDV |  |  |  |  | 20.37 ± 0.19 | 0.00317 ± 0.00617 | 0.15
CgDAPDH^BC621 (Corynebacterium glutamicum ATCC 13032; D154G/H244N/Q150L/R195M/T169P) (protein, five-fold mutant BC621 in pET28a, recombinant in E. coli BL21(DE3), HisTrap purified) MTNIRVAIVGYGNLGRSVEKLIAKQPDMDLVGIFSRRATLDTKTPVFDVADVDKHADDVDVLFLCMGSATDIPEQAPKFAQFACTVDTYDNHRDIPRHRQVMNEAATAAGNVALVSTGWDPGMFSINRVYAAAVLAEHQQHTFWGPGLSLGHSGALRRIPGVQKAVQYPLPSEDALEKARRGEAGDLTGKQTHKMQCFVVADAADHERIENDIRTMPDYFVGYEVEVNFIDEATFDSEHTGMPNGGHVITTGDTGGFNHTVEYILKLDRNPDFTASSQIAFGRAAHRMKQQGQSGAFTVLEVAPYLLSPENLDDLIARDV |  |  |  |  | 8.17 ± 0.89 | 0.0247 ± 0.00417 | 3
CgDAPDH^BC621 (Corynebacterium glutamicum ATCC 13032; D154G/H244N/Q150L/R195M/T169P/W144S) (protein, five-fold mutant BC621 in pET28a, recombinant in E. coli BL21(DE3), HisTrap purified) MTNIRVAIVGYGNLGRSVEKLIAKQPDMDLVGIFSRRATLDTKTPVFDVADVDKHADDVDVLFLCMGSATDIPEQAPKFAQFACTVDTYDNHRDIPRHRQVMNEAATAAGNVALVSTGWDPGMFSINRVYAAAVLAEHQQHTFSGPGLSLGHSGALRRIPGVQKAVQYPLPSEDALEKARRGEAGDLTGKQTHKMQCFVVADAADHERIENDIRTMPDYFVGYEVEVNFIDEATFDSEHTGMPNGGHVITTGDTGGFNHTVEYILKLDRNPDFTASSQIAFGRAAHRMKQQGQSGAFTVLEVAPYLLSPENLDDLIARDV |  |  |  |  | 8.07 ± 0.68 | 0.0225 ± 0.0232 | 2.83
CgDAPDH^BC621 (Corynebacterium glutamicum ATCC 13032; D120S/D154G/H244N/Q150L/R195M/T169P/W144S) (protein, five-fold mutant BC621 in pET28a, recombinant in E. coli BL21(DE3), HisTrap purified) MTNIRVAIVGYGNLGRSVEKLIAKQPDMDLVGIFSRRATLDTKTPVFDVADVDKHADDVDVLFLCMGSATDIPEQAPKFAQFACTVDTYDNHRDIPRHRQVMNEAATAAGNVALVSTGWSPGMFSINRVYAAAVLAEHQQHTFSGPGLSLGHSGALRRIPGVQKAVQYPLPSEDALEKARRGEAGDLTGKQTHKMQCFVVADAADHERIENDIRTMPDYFVGYEVEVNFIDEATFDSEHTGMPNGGHVITTGDTGGFNHTVEYILKLDRNPDFTASSQIAFGRAAHRMKQQGQSGAFTVLEVAPYLLSPENLDDLIARDV |  |  |  |  | 2.48 ± 0.28 | 0.0448 ± 0.005 | 18
CgDAPDH^BC621 (Corynebacterium glutamicum ATCC 13032; D120S/D154G/H244N/Q150L/R195M/T169P) (protein, five-fold mutant BC621 in pET28a, recombinant in E. coli BL21(DE3), HisTrap purified) MTNIRVAIVGYGNLGRSVEKLIAKQPDMDLVGIFSRRATLDTKTPVFDVADVDKHADDVDVLFLCMGSATDIPEQAPKFAQFACTVDTYDNHRDIPRHRQVMNEAATAAGNVALVSTGWSPGMFSINRVYAAAVLAEHQQHTFWGPGLSLGHSGALRRIPGVQKAVQYPLPSEDALEKARRGEAGDLTGKQTHKMQCFVVADAADHERIENDIRTMPDYFVGYEVEVNFIDEATFDSEHTGMPNGGHVITTGDTGGFNHTVEYILKLDRNPDFTASSQIAFGRAAHRMKQQGQSGAFTVLEVAPYLLSPENLDDLIARDV |  |  |  |  | 7.83 ± 0.03 | 0.0243 ± 0.0117 | 3.17

Reference: PMC10991500, “A multi-enzyme cascade for efficient production of D-p-hydroxyphenylglycine from L-tyrosine” (Bioresources and Bioprocessing, 2021)
